From article PMC5671938, “Multimerin-2 is a ligand for group 14 family C-type lectins CLEC14A, CD93 and CD248 spanning the endothelial pericyte interface” (Oncogene, 2017) come the findings set out here.

The target in the assay is T1, recombinant CLEC14A extracellular domain with an Fc tag (CLEC14A-ECD-Fc) (human, UniProt Q86T13 22-397).
T1 construct: CLEC14A, human, extracellular domain; Human IgG Fc alone served as the control for the Fc tag; also called hCLEC14A-ECD-Fc; CLEC14A-Fc
T1 sequence (looked up): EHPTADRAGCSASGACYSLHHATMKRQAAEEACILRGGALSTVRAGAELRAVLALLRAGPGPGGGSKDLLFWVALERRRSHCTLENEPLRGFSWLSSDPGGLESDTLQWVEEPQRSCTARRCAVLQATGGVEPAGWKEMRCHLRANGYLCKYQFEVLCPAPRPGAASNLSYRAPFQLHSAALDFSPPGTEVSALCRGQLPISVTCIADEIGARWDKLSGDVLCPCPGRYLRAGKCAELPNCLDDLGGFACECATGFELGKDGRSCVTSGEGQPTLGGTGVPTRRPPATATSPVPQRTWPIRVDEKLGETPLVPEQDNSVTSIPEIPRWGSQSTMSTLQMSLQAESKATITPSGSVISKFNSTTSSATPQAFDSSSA
Description: flow cytometry on cells; blocking: hCLEC14A-ECD-Fc incubated with 2 x molar excess of MMRN2^495-674 or MMRN2^495-603 for 1 h at 4 °C, then used to stain the HUVEC surface; anti-hFc-FITC. Particulars: both partners purified. In general terms: A flow cytometer gives signals particle by particle.

B1: MMRN2^495-674 expressed and purified from E. coli (blocking experiments) (domain or fragment, human, UniProt Q9H8L6 495-674, looked up)
chain: QKLYLDLDVIREGQRDATRALEETQVSLDERRQLDGSSLQALQNAVDAVSLAVDAHKAEGERARAATSRLRSQVQALDDEVGALKAAAAEARHEVRQLHSAFAALLEDALRHEAVLAALFGEEVLEEMSEQTPGPLPLSYEQIRVALQDAASGLQEQALGWDELAARVTALEQASEPPRP
notes: codon optimized synthetic DNA in pET23a between NdeI and NotI; The fragment was made 'with His tag or avitag'; also called MMRN2 peptide; source: E. coli BL21-DE3 pLysS, purified (Nickel-NTA, size exclusion chromatography), endotoxin removed
B1: the binding result was “binds”.
